# Source: patent US20240115717A1 (VRG THERAPEUTICS KFT, published 2024)
# B1: his-tagged MMP-2 (Co-bead test; ProSpec #ENZ-769) (enzyme)
# chain: YNFFPRKPKWDKNQITYRIIGYTPDLDPETVDDAFARAFQVWSDVTPLRFSRIHDGEADIMINFGRWEHGDGYPFDGKDGLLAHAFAPGTGVGGDSHFDDDELWTLGEGQVVRVKYGNADGEYCKFPFLFNGKEYNSCTDTGRSDGFLWCSTTYNFEKDGKYGFCPHEALFTMGGNAEGQPCKFPFRFQGTSYDSCTTEGRTDGYRWCGTTEDYDRDKKYGFCPETAMSTVGGNSEGAPCVFPFTFLGNKYESCTSAGRSDGKMWCATTANYDDDRKWGFCPDQGYSLFLVAAHEFGHAMGLEHSQDPGALMAPIYTYTKNFRLSQDDIKGIQELYGASPDIDLGTGPTPTLGPVTPEICKQDIVFDGIAQIRGEIFFFKDRFIWRTVTPRDKPMGPLLVATFWPELPEKIDAVYEAPQEEKAVFFAGNEYWIYSASTLERGYPKPLTSLGLPPDVQRVDAAFNWSKNKKTYIFAGDKFWRYNEVKKKMDPGFPKLIADAWNAIPDNLDAVVDLQGGGHSYFFKGAYYLKLENQSLKSVKFGSIKSDWLGC
# notes: range 110-660; also called matrix metalloproteinase 2
# Biological target: phage-displayed CTXD of SEQ ID NO: 24 (bacteriophage M13)
# Test: Co-bead test, phage display (FIG. 3)
binder,measurement,value
B1,binding result,binds
